In patent US20190016816A1 (APTEVO RESEARCH AND DEVELOPMENT, published 2019):
Each block holds one binder with its values, some of them ahead of it.

Experiments:
human 5T4 on cells [1] = biological target: T1, human 5T4 on cells (human, UniProt Q13641 32-420); experiment: cell-based or functional assay
T1 sequence: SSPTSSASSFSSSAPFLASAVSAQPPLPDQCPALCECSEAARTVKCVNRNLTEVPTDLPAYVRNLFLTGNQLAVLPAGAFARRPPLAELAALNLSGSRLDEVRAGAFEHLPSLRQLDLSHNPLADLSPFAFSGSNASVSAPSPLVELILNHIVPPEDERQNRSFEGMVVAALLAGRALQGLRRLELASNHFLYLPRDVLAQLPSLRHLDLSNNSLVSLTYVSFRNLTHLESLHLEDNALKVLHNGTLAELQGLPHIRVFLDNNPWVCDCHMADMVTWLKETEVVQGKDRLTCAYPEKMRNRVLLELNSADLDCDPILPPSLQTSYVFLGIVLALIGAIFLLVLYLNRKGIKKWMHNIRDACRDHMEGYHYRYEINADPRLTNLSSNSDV

human 5T4 on cells [2] = biological target: T1, human 5T4 on cells; experiment: cell-based or functional assay; remark: listed apart in the source
human CD137 on cells [3] = biological target: T2, human CD137 on cells (human, UniProt Q07011 24-255); experiment: flow cytometry, MFI of all CD3+CD8+ cells gated from CD3-stimulated human PBMC
T2 construct: also called 4-1BB; TNFRSF9 (CHO-K1/human CD137 cells)
Experimental: (§1) Following 48 h of incubation with or without CD3, human and cynomolgus PBMC were harvested, pooled, recounted and diluted in FACS buffer (PBS+0.5% BSA, 0.05% NaN₃) to a concentration of 5×10⁶ cells/mL. 50 μL (0.25×10⁶ cells) of cell solution was added to a 96-well FACS staining plate (Falcon #351190). Following 10 min of Fc-blocking in RT using Beriglobin (hIgG, 200 μg/mL), cells were washed in FACS buffer and then incubated for 1 h in 4° C. with 100 μL of the biotinylated ALG.APV-210 or negative control. The antibodies were added in a serial dilution starting either at 5 μg/mL titrating down in a 12 step ⅓ dilution down to 0.0003 μg/mL (exp 1) or 1 μg/mL titrating down in a 12 step ½ dilution down to 0.0005 μg/mL (exp 2). […] Cells were analysed for ALG.APV-210 binding using flow cytometry by gating on viable, single cells expressing CD3 and CD8. MFI values (FMO subtracted) from 2 independent experiments as well as normalized pooled data from 2 experiments and EC₅₀-values were determined and plotted using GraphPad Prism 7, non-linear regression log (agonist) vs. normalized response—variable slope, n=6 donors/group.

human 5T4 on cells [4] = biological target: T1, human 5T4 on cells; experiment: flow cytometry, HT-29 cells, streptavidin-PE, normalized MFI of 2 pooled experiments
Experimental: (§2) Prior to the FACS staining, all cell lines were characterized for their 5T4 expression levels using a receptor density kit (Quantum Simply Cellular, anti-human IgG, Bangs Laboratories, Inc). Adherent cell lines were cultured according to their supplier's instructions and were harvested from their cell culture flasks using Trypsin/EDTA, counted in R10 medium in a Burker chamber, and diluted in FACS buffer (PBS+0.5% BSA, 0.05% NaN₃) to a concentration of 4×10⁶ cells/mL. 50 μL (0.20×10⁶) of cell solution was added to a 96-well FACS staining plate (Falcon #351190). Cells were incubated for 20 min in 4° C. with 50 μL of the biotinylated ALG.APV-210 (2× final concentration). The antibodies were added in a serial dilution starting at 20 μg/mL titrating down in a 12 step ½ dilution down to 0.010 μg/mL. Following 2× washing with FACS buffer, cells were incubated for 30 min in 4° C. with 100 μL of a secondary antibody (streptavidin-PE, BD #554061, diluted 1/500). […] Cells were analysed for ALG.APV-210 binding using flow cytometry (FACSVerse) by gating on single cells. MFI values (secondary antibody only subtracted) from 1 out of 2 independent experiments, as well as normalized data and EC₅₀-values of pooled data from 2 experiments were determined and plotted using GraphPad Prism 7, non-linear regression log (agonist) vs. normalized response—variable slope.

human CD137 on cells [5] = biological target: T2, human CD137 on cells; experiment: flow cytometry, MFI of the CD137 positive cells; human CD8 T cells, MFI of CD137 positive cells
Experimental: as §1

human 5T4 on cells [6] = biological target: T1, human 5T4 on cells; experiment: flow cytometry, CT26-hu5T4^low cells, streptavidin-PE, normalized MFI of 2 pooled experiments
Experimental: as §2

human CD137 on cells [7] = biological target: T2, human CD137 on cells; experiment: flow cytometry, CD8 T cells gated from CD3-stimulated human PBMC, biotinylated antibody + streptavidin-APC, exp 2, n=3 donors
Experimental: as §1, with “control.” for “control. The antibodies were added in a serial dilution starting either at 5 μg/mL titrating down in a 12 step ⅓ dilution down to 0.0003 μg/mL (exp 1) or 1 μg/mL titrating down in a 12 step ½ dilution down to 0.0005 μg/mL (exp 2).”
(§3) In ELISA tests, the binding of biotinylated ALG.APV-210 to CD137 was similar to that of the non-biotinylated ALG.APV-210 (0.6 nM vs. 0.7 nM). The binding (EC₅₀) of the biotinylated ALG.APV-210 to its immunomodulatory target CD137 when expressed on activated primary human and cynomolgus CD8 T cells from CD3 stimulated PBMC was assessed and compared between the two species as well as to unstimulated cells. […]

[8] = biological target: T3, cynomolgus CD137 on cells (cynomolgus macaque, UniProt A9YYE7 24-254); experiment: flow cytometry, CD8 T cells gated from CD3-stimulated cynomolgus PBMC, biotinylated antibody + streptavidin-APC, exp 2, n=3 donors
T3 construct: whole, on cells; also called CHO-K1/cynomolgus CD137 cell line; cynomolgus monkey CD137 on CD3-stimulated primary CD8 T cells
Experimental: as §1, with “control.” for “control. The antibodies were added in a serial dilution starting either at 5 μg/mL titrating down in a 12 step ⅓ dilution down to 0.0003 μg/mL (exp 1) or 1 μg/mL titrating down in a 12 step ½ dilution down to 0.0005 μg/mL (exp 2).”
as §3

T2 sequence (Q07011 24-255 limits assumed): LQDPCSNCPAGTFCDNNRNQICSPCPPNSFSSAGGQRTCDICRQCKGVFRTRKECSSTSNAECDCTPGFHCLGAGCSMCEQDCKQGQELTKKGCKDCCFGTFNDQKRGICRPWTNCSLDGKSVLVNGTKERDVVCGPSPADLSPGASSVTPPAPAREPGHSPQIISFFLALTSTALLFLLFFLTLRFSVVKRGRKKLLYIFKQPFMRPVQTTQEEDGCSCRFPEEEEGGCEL
T3 sequence (A9YYE7 entry or part of it): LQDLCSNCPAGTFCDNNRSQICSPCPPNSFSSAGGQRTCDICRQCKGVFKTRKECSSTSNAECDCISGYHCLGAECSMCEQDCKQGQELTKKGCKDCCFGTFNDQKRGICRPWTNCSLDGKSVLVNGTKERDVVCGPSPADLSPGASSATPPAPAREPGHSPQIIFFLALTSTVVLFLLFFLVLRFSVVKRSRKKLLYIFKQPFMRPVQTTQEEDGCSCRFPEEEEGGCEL

maximal IFNγ release with CT26-h5T4^low cells relative to CT26-h5T4^high cells (human 5T4 on cells [1]): 82%
maximal IFNγ release with CT26-wt cells (no 5T4) relative to CT26-h5T4^high cells (human 5T4 on cells [1]): 7%
EC50 (nM), IFNγ release of human CD8+ T cells with HCT116 cells (human 5T4 on cells [2]): 0.17 nM
B1: ALG.APV-210 (bispecific antibody)
chain: EVQLLESGGGLVQPGGSLRLSCAASGFTFSHGSMYWVRQAPGKGLEWVSSISSGSGSTYYADSVKGRFTISHDNSKNTLYLQMNSLRAEDTAVYYCARSSYYGSYYSIDYWGQGTLVTVSSGGGGSGGGGSGGGGSGGGGSDIQMTQSPSSLSASVGDRVTITCRASQSISSYLNWYQQKPGKAPKLLIYAASSLQSGVPSRFSGSGSGTDFTLTISSLQPEDFATYYCQQYYDNLPTFGQGTKLEIKEPKSSDKTHTCPPCPAPEAAGAPSVFLFPPKPKDTLMISRTPEVTCVVVDVSHEDPEVKFNWYVDGVEVHNAKTKPREEQYNSTYRVVSVLTVLHQDWLNGKEYKCAVSNKALPAPIEKTISKAKGQPREPQVYTLPPSRDELTKNQVSLTCLVKGFYPSDIAVEWESNGQPENNYKTTPPVLDSDGSFFLYSKLTVDKSRWQQGNVFSCSVMHEALHNHYTQKSLSLSPGSGGGGSGGGGSGGGGSPSEVQLLESGGGLVQPGGSLRLSCAASGFTFSSYAMSWVRQAPGKCLEWVSAISGSGGSTYYADSVKGRFTISRDNSKNTLYLQMNSLRAEDTAVYYCARYYGGYYSAWMDYWGQGTLVTVSSGGGGSGGGGSGGGGSGGGGSDIQMTQSPSSLSASVGDRVTITCRASQSISSFLNWYQQKPGKAPKLLIYAASSLQSGVPSRFSGSGSGTDFTLTISSLQPEDSATYYCQQTYGYLHTFGCGTKLEIKR
notes: Optimized ADAPTIR scFv-Fc-scFv homodimer with stabilizing disulfide in the 1210 scFv; also called 5T4-CD137 bispecific antibody

B2: biotinylated ALG.APV-210 (bispecific antibody)
chain: B1 chain
notes: also called ALG.APV-210 (biotinylated for FACS detection)
EC50 (human CD137 on cells [3]): 0.235 nM
EC50 (human 5T4 on cells [4]): 12 nM
EC50 (human CD137 on cells [5]): 0.17 nM
EC50 (human 5T4 on cells [6]): 11 nM
EC50 (read off the curve) (human CD137 on cells [7]): ~0.2 nM
EC50 (read off the curve) [8]: ~0.2 nM
